Data published in patent US20250282881A1 (SHANGHAI EPIMAB BIOTHERAPEUTICS, published 2025).

T1: ΔCRD1-3 (human, UniProt P43489)
T1 construct: extracellular domain without CRD1, CRD2 and CRD3 (CRD4 left); also called truncated OX40 variant lacking CRD1, CRD2 and CRD3
T1 sequence (truncated extracellular domain, looked up): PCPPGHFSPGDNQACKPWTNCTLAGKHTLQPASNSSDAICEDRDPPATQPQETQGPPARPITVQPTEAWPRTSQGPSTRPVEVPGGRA

T2: human OX40 on cells (CHO-K1-hOX40, CHO-OX40, Jurkat-OX40 reporter cells) (human, UniProt P43489 29-277)
T2 construct: also called human OX40-transfected CHO cell; CD134
T2 sequence: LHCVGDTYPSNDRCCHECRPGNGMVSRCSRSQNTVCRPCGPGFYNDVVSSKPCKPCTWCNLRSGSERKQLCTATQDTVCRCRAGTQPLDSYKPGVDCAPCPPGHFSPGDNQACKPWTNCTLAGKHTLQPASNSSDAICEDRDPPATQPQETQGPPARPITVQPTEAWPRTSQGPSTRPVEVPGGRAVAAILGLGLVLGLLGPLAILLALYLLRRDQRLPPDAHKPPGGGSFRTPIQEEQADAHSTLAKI

T3: recombinant human OX40/His fusion protein (Novoprotein, CB17) (human, UniProt P43489 29-216)
T3 construct: Bought protein
T3 sequence: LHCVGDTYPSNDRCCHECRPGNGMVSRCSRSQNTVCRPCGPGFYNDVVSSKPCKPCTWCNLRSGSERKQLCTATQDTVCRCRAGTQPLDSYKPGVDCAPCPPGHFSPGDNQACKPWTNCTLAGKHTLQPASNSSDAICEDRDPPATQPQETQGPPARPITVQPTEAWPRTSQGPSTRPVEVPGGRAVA


Experiments:
ΔCRD1-3 = target: T1, ΔCRD1-3; assay: ELISA, OX40 variant coated at 1 µg/ml, HRP-labeled secondary antibody, OD 450 nm
From the text: The 4 cysteine rich domains (CRD) from OX40 extracellular domain were identified from UniProt (Identifier: P43489), and full length of extracellular OX40 (CRD1-4) and truncated OX40 variants ΔCRD1 (lacking CRD1), ΔCRD1-2 (lacking CRD1 and CRD2), ΔCRD1-3 (lacking CRD1, CRD2 and CRD3), mCRD1 (CRD1-4 with CRD1 domain therein replaced by murine CRD1), mCRD2 (CRD1-4 with CRD2 domain therein replaced by murine CRD2), mCRD3 (CRD1-4 with CRD3 domain therein replaced by murine CRD3), and mCRD4 (CRD1-4 with CRD4 domain therein replaced by murine CRD4) were synthesized by Biointron. The binding of HuEM1007-044-16, OX40-Tab1 (WO2015153513), OX40-Tab2 (WO2020151761) to OX40 or OX40 truncated proteins were analyzed using ELISA to identify the pertinent binding epitope. Briefly, OX40 variants were each coated at 1 μg/ml onto a 96 well plate (Corning, #3361) which was incubated overnight at 4° C., washed with PBS containing 0.05% Tween 20, blocked with blocking buffer (PBS containing 0.05% Tween 20 and 2% BSA) at 37° C. for 2 hours. On the coated and blocked plate, serially diluted antibodies were added and incubated at 37° C. for 1 hour, washed for 3 times, then added HRP-labeled secondary antibody. Tetramethylbenzidine (TMB) chromogenic solution was added for color development for 5 minutes then the reaction was quench with 1M HCl. Absorbance at 450 nm (OD450) was measured on a microplate reader.

[1] = target: T2, human OX40 on cells (CHO-K1-hOX40, …); assay: FACS on human OX40 transfected CHO cells
Description: Cell binding affinity of PD-L1/OX40 antibodies were measured against CHO (ATCC, #CCL-61) overexpressing human PD-L1 (CHO-PD-L1) and CHO overexpressing OX40 (CHO-OX40), respectively. Briefly, 5×10⁵ cells were seeded into each well of a 96-well plate (Corning, #3799). Cells were centrifuged at 400 g for 5 minutes and supernatants were discarded. For each well, 100 μl of 3× serial dilution of antibodies starting from 100 nM were then added and mixed with the cells. After 60 minutes of 4° C. incubation, plates were washed several times to remove excess antibodies. […] After another round of centrifugation and washing, cells were resuspended in FACS buffer for reading on a CytoFLEX Flow Cytometer (Beckman Coulter). Median Fluorescence Intensity (MFI) readouts were plotted against antibody concentration and analyzed with GraphPad Prism 8.0.

[2] = target: T3, recombinant human OX40/His fusion …; assay: BLI (Octet RED96), antibody on AHC sensor, OX40/His as analyte, test group 4
Description: All 17 antibodies in Table 4 were expressed by transient transfection of HEK293 cell, purified by Protein A chromatography, and assayed for and ranked by dissociation rate constant (koff). Briefly, antibodies binding affinities and kinetics were characterized by Octet® RED96 biolayer interferometry (Pall FortéBio LLC). Antibodies were captured by Anti-hIgG Fc Capture (AHC) Biosensors (Pall) at a concentration of 100 nM for 120 seconds. After that, sensors were dipped into running buffer (1× pH 7.2 PBS, 0.05% Tween 20, 0.1% BSA) for 60 seconds to check the baseline, then dipped into recombinant human OX40/His fusion protein (Novoprotein, CB17) at assigned concentration for 200 seconds to measure binding, followed by dipped into running buffer for 600 seconds for dissociation. The assay was conducted in four test groups (as listed in Table 5) all containing the EM1007-044c chimeric antibody as the basis for normalization. The association and dissociation curves were fitted to a 1:1 Langmuir binding model using ForteBio Data Analysis software (Pall) to obtain the off-rate constants as shown in Table 5 below. The off-rate of each antibody was compared to that of the EM1007-mAb044c chimeric antibody in the same test group obtained in parallel to produce the corresponding off-rate ratio, serving as a normalized index. […]

[3] = target: T4, recombinant human PD-L1/His fusion protein (Novoprotein, Cat. No. C315) (human, UniProt Q9NZQ7 19-239); assay: BLI (Octet RED96), antibody on AHC sensor, PD-L1/His as analyte, test group 2
T4 construct: also called recombinant human PD-L1-his protein
T4 sequence (Q9NZQ7 19-239 limits assumed): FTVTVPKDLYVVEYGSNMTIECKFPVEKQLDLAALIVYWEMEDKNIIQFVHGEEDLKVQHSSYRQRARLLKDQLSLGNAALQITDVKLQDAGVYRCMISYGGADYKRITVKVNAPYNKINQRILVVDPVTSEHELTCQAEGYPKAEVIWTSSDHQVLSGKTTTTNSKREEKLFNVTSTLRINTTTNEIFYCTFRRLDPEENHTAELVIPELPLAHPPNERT
From the text: (§1) Based on titer and purity, 10 of the 50 humanized antibodies were selected and further assayed in two groups for dissociation rate constant (koff) as shown in Table 7. Chimeric antibody EM0005-86c having VH/VL sequences identical to EM0005-mAb86 (as provided in Table 6) was used as a positive control in each group and served as a basis for normalization. Briefly, antibodies were characterized for affinities and binding kinetics by Octet® RED96 biolayer interferometry (Pall FortéBio LLC). Anti-hIgG Fc Capture (AHC) Biosensors (Pall) with antibody captured at a concentration of 100 nM for 120 seconds were dipped into running buffer (1× pH 7.2 PBS, 0.05% Tween 20, 0.1% BSA) for 60 seconds to check the baseline, then dipped into a single concentration of recombinant human PD-L1/His fusion protein (Novoprotein, Cat. No. C315) to measure binding for 200 seconds, followed by dipped into running buffer to measure dissociation for 600 seconds. The association and dissociation curves were fitted to a 1:1 Langmuir binding model using FortéBio Data Analysis software (Pall). The off-rate ratios shown in Table 7 were calculated by off-rate of a humanized antibody to that of EM0005-86c in the same test group. The off-rate ratio serves as a normalized index, so that the humanized antibodies can be compared to one another across test groups. […]

[4] = target: T4, recombinant human PD-L1/His fusion …; assay: BLI (Octet RED96), antibody on AHC sensor, PD-L1/His as analyte, test group 1 (the reference itself)
From the text: as §1

[5] = target: T4, recombinant human PD-L1/His fusion …; assay: BLI (Octet RED96), antibody on AHC sensor, PD-L1/His as analyte, test group 2 (the reference itself)
From the text: as §1

[6] = target: T4, recombinant human PD-L1/His fusion …; assay: BLI (Octet RED96), antibody on AHC sensor, PD-L1/His as analyte, test group 1
From the text: Based on titer and purity, 10 of the 50 humanized antibodies were selected and further assayed in two groups for dissociation rate constant (koff) as shown in Table 7. Chimeric antibody EM0005-86c having VH/VL sequences identical to EM0005-mAb86 (as provided in Table 6) was used as a positive control in each group and served as a basis for normalization. Briefly, antibodies were characterized for affinities and binding kinetics by Octet® RED96 biolayer interferometry (Pall FortéBio LLC). Anti-hIgG Fc Capture (AHC) Biosensors (Pall) with antibody captured at a concentration of 100 nM for 120 seconds were dipped into running buffer (1× pH 7.2 PBS, 0.05% Tween 20, 0.1% BSA) for 60 seconds to check the baseline, then dipped into a single concentration of recombinant human PD-L1/His fusion protein (Novoprotein, Cat. No. C315) to measure binding for 200 seconds, followed by dipped into running buffer to measure dissociation for 600 seconds. The association and dissociation curves were fitted to a 1:1 Langmuir binding model using FortéBio Data Analysis software (Pall). The off-rate ratios shown in Table 7 were calculated by off-rate of a humanized antibody to that of EM0005-86c in the same test group. The off-rate ratio serves as a normalized index, so that the humanized antibodies can be compared to one another across test groups. The lower off-rate ratio indicates higher affinity of an antibody for human PD-L1. HuEM0005-86-21 was selected for further investigation based on the purity and off-rate data.

binding result (ΔCRD1-3)	EC50 [1]	Normalized Index (off-rate ratio to EM1007-mAb044c) [2]	koff [2]	koff [3]	Off-Rate Ratio to EM0005-86c [4]	Off-Rate Ratio to EM0005-86c [5]	koff [6]	Binder
no binding (tested: about 25 nM)	1.8 nM	126%	0.000352 s⁻¹					HuEM1007-044-16 (antibody, human IgG1, kappa, L234A L235A, V domains shown, Humanized anti-OX40, human IgG1 LALA / kappa; parental antibody of FIT1014-20a; also called HuEM1007-44-16; parental OX40 antibody) VH: EVQLQQSGAEVKKPGSSVKVSCKASGHAFSSSWMNWVKQRPGKGLEWIGRIYPGDEITNYNAKFKDKATLTADKSTSTAYMELSSLRSEDTAVYYCARDLLMPYWGQGTLVTVSS VL: DIVMTQTPLSLPVTPGEPASISCRSSKSLLYSNAITYLYWYLQKPGQSPQLLIYQMSNLAPGVPDRFSSSGSGTDFTLKISRVEAEDVGVYYCAQNLELPFTFGQGTKLEIKR
				0.000146 s⁻¹	100%	100%	0.000272 s⁻¹	EM0005-86c (antibody, V domains shown, Chimeric anti-PD-L1; captured on anti-human IgG Fc sensors) VH: QVQLQQSGAELVRPGSSVKMSCKTSGYTFTTYGINWVKQRPGQGLEWIGYIYIGNGYTEYNEKFKGKATLTSDPSSRTAYMQLSSLTSEDSAIYFCARDLMVIAPKTMDYWGQGTSVTVSS VL: DIQMNQSHKFMSTSVGDRVSITCKASQDVGTAVAWYQQKPGQSPKLLIYWASTRHTGVPDRFTGGGSGTDFTLTISNVQSEDLADYFCQQYSSYPYTFGGGTKLEMK
